In paper PMC3466216, “The CRISPR Associated Protein Cas4 Is a 5′ to 3′ DNA Exonuclease with an Iron-Sulfur Cluster” (PLoS ONE, 2012):

Molecular target: the molecule itself
Assay: SEC; calibrated Superose-12 column, buffer E (20 mM Tris-HCl pH 7.5, 250 mM NaCl, 10% glycerol), flow rate 0.8 ml/min; self-association, size of the oligomer not determined

B1: Sso0001 (Cas4 family protein from Sulfolobus solfataricus) (enzyme, Sulfolobus solfataricus P2, UniProt Q97TX9 1-202, looked up)
chain: MITEFLLKKKLEEHLSHVKEENTIYVTDLVRCPRRVRYESEYKELAISQVYAPSAILGDILHLGLESVLKGNFNAETEVETLREINVGGKVYKIKGRADAIIRNDNGKSIVIEIKTSRSDKGLPLIHHKMQLQIYLWLFSAEKGILVYITPDRIAEYEINEPLDEATIVRLAEDTIMLQNSPRFNWECKYCIFSVICPAKLT
notes: Sso0001, Cas4 family protein of Sulfolobus solfataricus P2; the sso0001 gene was amplified from the genome with primers that begin at the start codon and end after the stop codon; a single subunit is printed as 23 kDa; Carries an iron-sulfur cluster (mean 4.3 iron atoms per protein, consistent with 4Fe:4S); No removal of the tag is described; The size of the oligomer was not determined; also …
- binding result: binds
